Measured values from article PMC6151112, “Identification of MOS9 as an interaction partner for chalcone synthase in the nucleus” (PeerJ, 2018).

Columns and labels:
[1] = target: CHS-syfp2 fusion (Arabidopsis) (UniProt P13114); assay: FRET or BRET; frequency domain FLIM-FRET in Arabidopsis tt4-11 mesophyll protoplasts; donor MOS9-scfp3a, acceptor SYFP2 fusions; E from phase-shift lifetimes
[2] = target: T1, recombinant chalcone synthase (CHS) (Arabidopsis, UniProt P13114 1-395); assay: SPR; CHS immobilised by amine coupling on a planar PEG/carboxyl chip (Reichert SR7000); MOS9 0.1-1 uM flowed over in 10 mM HEPES pH 7.5, 150 mM NaCl, 1 mg/ml BSA, 50 ul/min; KD from Koff/Kon; details: both partners purified
T1 construct: chalcone synthase (CHS), Arabidopsis, At5g13930; The construct for recombinant CHS is not described; earlier work of the same laboratory may hold it (possibly with a carrier protein); also called recombinant CHS; source: E. coli BL21 (DE3) pLysS, purified (nickel column, FPLC)
T1 sequence (looked up): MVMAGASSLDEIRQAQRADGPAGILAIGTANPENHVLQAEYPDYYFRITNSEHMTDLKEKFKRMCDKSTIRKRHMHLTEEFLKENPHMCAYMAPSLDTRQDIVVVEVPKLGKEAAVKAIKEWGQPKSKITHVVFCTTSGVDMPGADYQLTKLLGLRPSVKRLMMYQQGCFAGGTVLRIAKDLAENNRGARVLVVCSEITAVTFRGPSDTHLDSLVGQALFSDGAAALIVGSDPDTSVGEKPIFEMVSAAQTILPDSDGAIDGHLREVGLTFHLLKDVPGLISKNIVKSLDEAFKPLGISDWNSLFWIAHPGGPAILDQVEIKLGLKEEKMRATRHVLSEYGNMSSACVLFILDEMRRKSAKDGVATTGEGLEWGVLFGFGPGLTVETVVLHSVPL

**Q.** MOS9-scfp3a fusion (natural protein) was tested. Which FRET efficiency E τ(φ) [1] did it give?
**A.** 6.5%

B1: MOS9::V5::6xHis recombinant protein (natural protein, Arabidopsis, UniProt F4IDT4 1-193, looked up)
chain: MMGMARKISKEEVVEKLKDDGDFDRLRLKIIRRLKENEDLRNNMISVVKESTSLKRHGAQNMKTRQLSDAIFEEVGSKMLSQLSDGLWGIIRSEDGMKNEIRETVQSVYATLSNPRGEKRGTSAREMEHKIPTPKKEARTDFNTSPASKQKQELIKGAVEDNKGEACSDDVQDNKGEAYNDDEEDPELPPGFG
notes: MOS9, Arabidopsis, At1g12530, coding region minus the stop codon (193 amino acids), from clone pENTR221-AT1G12530, recombined into pET-DEST42; Gateway recombination leaves linker residues between MOS9 and the tags; also called At1g12530 protein; recombinant protein generated in E. coli from At1g12530 cDNA; source: E. coli BL21 (DE3) pLysS, purified (nickel column, FPLC); not shown: V5, …
**Q.** How did the Kd [2] turn out when B1 was run?
**A.** 210 nM
